These results are taken from US20220168438A1 (Daiichi Sankyo, published 2022).

One assay concerns the target T1, human CLDN4 (human, UniProt O14493 1-209).
T1 construct: whole, on cells
T1 sequence (looked up): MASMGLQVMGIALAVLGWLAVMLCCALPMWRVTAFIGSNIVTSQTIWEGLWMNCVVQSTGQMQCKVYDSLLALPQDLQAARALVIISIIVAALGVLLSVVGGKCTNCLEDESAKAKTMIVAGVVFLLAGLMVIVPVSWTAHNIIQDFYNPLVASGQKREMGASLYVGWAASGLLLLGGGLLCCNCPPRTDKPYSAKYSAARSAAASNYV
The experiment in a line: flow cytometry on transiently transfected 293T cells. On the procedure: (§1) Binding activity of the mouse anti-CLDN6 antibodies produced in Example 6 to human CLDN6 and its family molecules, CLDN3, CLDN4, and CLDN9, was evaluated by using a flow cytometry method. Human CLDN3/pCMV6-Entry, human CLDN4/pCMV6-Entry, human CLDN6/pCMV-Entry, human CLDN9/pCMV6-Entry, or pCMV6-Entry purchased from OriGene Technologies, Inc. was transiently transferred into 293T cells (Thermo Fisher Scientific, HCL4517) by using Lipofectamine 2000 (Thermo Fisher Scientific), and the cells were cultured under conditions of 37° C. and 5% CO₂ overnight, and then a cell suspension was prepared. The transfected 293T cell suspension was centrifuged to remove the supernatant, and a mouse anti-CLDN6 antibody (clone number: B1 or C7) or a mouse IgG1 control antibody (R&D Systems, Inc.) was then added and suspended to a final concentration of 30 μg/mL, 10 μg/mL, 3.3 μg/mL, or 1.1 μg/mL, and the resultant was left to stand at 4° C. for 1 hour. The cells were washed twice with Dulbecco's phosphate buffered saline (Sigma-Aldrich Co. LLC) containing 5% fetal bovine serum (Hyclone) (hereinafter, referred to as 5% FBS-containing PBS), and FLUORESCEIN-CONJUGATED GOAT IGG FRACTION TO MOUSE IGG (WHOLE MOLECULE) (MP Biomedicals, Inc.) 500-fold diluted with 5% FBS-containing PBS was then added thereto, and the cells were suspended and left to stand at 4° C. for 1 hour. After washing twice with 5% FBS-containing PBS, detection was carried out by using a flow cytometer (FC500; Beckman Coulter, Inc.). Data analysis was carried out by using FlowJo (Tree Star, Inc.). To confirm each transfection, the cells were permeabilized with 0.25% Tween 20-containing PBS, and then a mouse anti-FLAG antibody (Sigma-Aldrich Co. LLC) was used. […] In each graph in FIG. 11, the ordinate represents FITC fluorescence intensity indicating the amount of the binding antibody and the abscissa represents antibody concentrations.
(§2) The binding activity of the humanized anti-CLDN6 antibody produced in Example 10 to human CLDN6 and its family molecules, CLDN3, CLDN4, and CLDN9, was evaluated by using a flow cytometry method.
(Flow cytometry measures light scatter and fluorescence of single cells or particles in a stream.)

For the next assay, the target named is T2, human CLDN3 (human, UniProt O15551 1-220).
T2 construct: whole, on cells
T2 sequence (looked up): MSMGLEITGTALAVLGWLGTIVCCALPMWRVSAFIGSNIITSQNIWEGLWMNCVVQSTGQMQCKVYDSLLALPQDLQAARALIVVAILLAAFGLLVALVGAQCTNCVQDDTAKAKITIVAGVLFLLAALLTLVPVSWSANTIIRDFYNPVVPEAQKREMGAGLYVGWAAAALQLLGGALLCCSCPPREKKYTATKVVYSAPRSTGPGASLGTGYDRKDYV
The description is as above. As to the method: as §1, §2

The target in assay [1] is T3, human CLDN6 (human, UniProt P56747 1-220).
T3 construct: Four-transmembrane protein; It was expressed on 293T cells from human CLDN6/pCMV-Entry (OriGene) and on CHO-K1 cells by cDNA transfection; it was endogenous in the NTERA-2 lysate used for immunoprecipitation; also called claudin-6; human claudin-6
T3 sequence: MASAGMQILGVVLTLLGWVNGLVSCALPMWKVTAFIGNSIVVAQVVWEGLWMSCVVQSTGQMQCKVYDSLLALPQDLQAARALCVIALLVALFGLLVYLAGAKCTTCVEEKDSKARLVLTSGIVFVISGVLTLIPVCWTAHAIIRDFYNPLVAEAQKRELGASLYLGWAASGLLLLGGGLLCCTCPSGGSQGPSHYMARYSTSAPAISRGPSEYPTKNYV
Description: immunoprecipitation from NTERA-2 cell lysate with 218B1, SDS-PAGE, mass spectrometry of the 18 kDa band. On the procedure:
2×10⁷ NTERA-2 cells were collected and washed twice with PBS. The cells were collected by using a cell scraper, and centrifuged at 1500 rpm for 5 minutes. After the supernatant was removed, the cells were resuspended in 2 mL of the lysis buffer, and treated at 4° C. for 30 minutes. The resultant was centrifuged (13000 rpm, 20 minutes, 4° C.) to prepare a cell lysate. Protein G Sepharose/lysis buffer (50% slurry; 180 μL) was added to the cell lysate, and the resultant was rotated at 4° C. for 30 minutes and then centrifuged at 4° C. for 1 hour, and the supernatant was collected. The 218B1 antibody (about 9 μg) was added to the supernatant, and the resultant was rotated at 4° C. for 30 minutes, to which Protein G Sepharose/lysis buffer (50% slurry; 180 μL) was then added, and the resultant was rotated at 4° C. for 1 hour. The Protein G Sepharose was washed six times with the lysis buffer (1 mL), and then resuspended in 1×SDS sample buffer. After the suspension was treated at 100° C. for 5 minutes, the solution was collected as a sample for SDS-PAGE. SDS-PAGE was carried out in the same manner as in 2-2), and the electrophoresis gel was stained with CBB. The part corresponding to 18 kDa was cut out of the electrophoresis gel, and subjected to mass spectrometry.

For assay [2], the target named is T4, human CLDN9 (human, UniProt O95484 1-217).
T4 construct: Expressed on 293T cells from human CLDN9/pCMV6-Entry (OriGene); Transfection was confirmed with an anti-FLAG antibody
T4 sequence: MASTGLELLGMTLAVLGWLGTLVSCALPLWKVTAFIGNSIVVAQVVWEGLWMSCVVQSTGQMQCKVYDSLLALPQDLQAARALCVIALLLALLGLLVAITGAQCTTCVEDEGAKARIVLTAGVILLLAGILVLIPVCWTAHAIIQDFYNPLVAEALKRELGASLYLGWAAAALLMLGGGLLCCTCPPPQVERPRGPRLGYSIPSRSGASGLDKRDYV
The experiment in a line: flow cytometry on transiently transfected 293T cells, 1.1-30 µg/mL. On the procedure:
Binding activity of the mouse anti-CLDN6 antibodies produced in Example 6 to human CLDN6 and its family molecules, CLDN3, CLDN4, and CLDN9, was evaluated by using a flow cytometry method. Human CLDN3/pCMV6-Entry, human CLDN4/pCMV6-Entry, human CLDN6/pCMV-Entry, human CLDN9/pCMV6-Entry, or pCMV6-Entry purchased from OriGene Technologies, Inc. was transiently transferred into 293T cells (Thermo Fisher Scientific, HCL4517) by using Lipofectamine 2000 (Thermo Fisher Scientific), and the cells were cultured under conditions of 37° C. and 5% CO₂ overnight, and then a cell suspension was prepared. The transfected 293T cell suspension was centrifuged to remove the supernatant, and a mouse anti-CLDN6 antibody (clone number: B1 or C7) or a mouse IgG1 control antibody (R&D Systems, Inc.) was then added and suspended to a final concentration of 30 μg/mL, 10 μg/mL, 3.3 μg/mL, or 1.1 μg/mL, and the resultant was left to stand at 4° C. for 1 hour. […] In each graph in FIG. 11, the ordinate represents FITC fluorescence intensity indicating the amount of the binding antibody and the abscissa represents antibody concentrations.

Assay [3] concerns the target T4, human CLDN9. Description: flow cytometry on transiently transfected 293T cells, 0.8-100 nM. On the procedure: (§3) The binding activity of the humanized anti-CLDN6 antibody produced in Example 10 to human CLDN6 and its family molecules, CLDN3, CLDN4, and CLDN9, was evaluated by using a flow cytometry method. Used were 293T cells transiently transfected in the same manner as in Example 7-1. To cells into which a human CLDN6 or human CLDN9 gene had been transferred, the humanized anti-CLDN6 antibody H1L1, H2L2, H1L3, H2L4, or H3L3, or a human IgG1 control antibody (Calbiochem) was added and suspended to a final concentration of 100 nM, 20 nM, 4 nM, or 0.8 nM, and the resultant was left to stand at 4° C. for 30 minutes. To cells into which a human CLDN3 or human CLDN4 gene, or an empty vector had been transferred, the humanized anti-CLDN6 antibody H1L1, H2L2, H1L3, H2L4, or H3L3 was added and suspended to a final concentration of 100 nM, and the resultant was left to stand at 4° C. for 30 minutes. The cells were washed with Dulbecco's phosphate buffered saline (Sigma-Aldrich Co. LLC) containing 5% fetal bovine serum (Hyclone) (hereinafter, referred to as 5% FBS-containing PBS), and FITC AffiniPureF (ab′)2 Fragment Goat Anti-Human IgG (H+L) (Jackson ImmunoResearch Laboratories Inc.) 150-fold diluted with 5% FBS-containing PBS was then added thereto, and the cells were suspended and left to stand at 4° C. for 30 minutes. After washing with 5% FBS-containing PBS, detection was carried out by using a flow cytometer (FC500; Beckman Coulter, Inc.). Data analysis was carried out by using FlowJo (Tree Star, Inc.), and mean fluorescence intensity (MFI) of FITC, which indicates the amount of the binding antibody, was calculated. […] In each graph in FIG. 13, the abscissa represents antibody concentrations and the ordinate represents MFI.

Assay [4] concerns the target T3, human CLDN6. The description is as above. As to the method:
as §3

B1: mouse anti-CLDN6 antibody B1 (antibody, V domains shown)
VH: EVQLQQSGPELVKPGASVKISCKTSGYTFTEYTMHWVQQSHGKSLEWIGGVNPNSGDTSYNQKFKGKATLTVDKSSSTAYMELRSLTSEDSAVYYCARPGGYDVGYYAMDYWGQGTSVTVSS
VL: DIQMTQTASSLSASLGDRVTISCRASQDINNYLNWYQQKPDGTVKLLIYFTSRLHSGVPSRFSGSGSGTHYSLTITNLEQEDIATYFCQQGYPLPWTFGGGTKLEIK
notes: Mouse monoclonal antibody purified from hybridoma 218B1 culture supernatant; also called B1 antibody; 218B1
With B1, the binding result with human CLDN4 was “no binding (tested: 30 µg/mL (highest concentration tested))”; with human CLDN3, “no binding (tested: 30 µg/mL (highest concentration tested))”; with human CLDN6 [1] it was “binds”; in the assay with human CLDN9 [2] it was “binds”.

B2: humanized anti-CLDN6 antibody H1L3 (antibody, human IgG1, kappa, L234A L235A, V domains shown)
VH: QVQLVQSGAEVKKPGASVKVSCKASGYTFTEYTMHWVRQAPGQGLEWMGGVNPNSGDTSYAQKFQGRVTITADTSTSTAYMELSSLRSEDTAVYYCARPGGYDVGYYAMDYWGQGTLVTVSS
VL: DIQMTQSPSSLSASVGDRVTITCRASQDINNYLNWYQQKPGGAVKLLIYFTSRLHSGVPSRFSGSGSGTDYTLTISSLQPEDFATYYCQQGYPLPWTFGGGTKVEIKR
notes: Human IgG1 LALA heavy chain and human kappa light chain; also called H1L3 antibody; hH1 + hL3
As to B2, the binding result is given as “no binding (tested: 100 nM)” with human CLDN4, “no binding (tested: 100 nM)” in the assay with human CLDN3, “binds” in the assay with human CLDN9 [3] and “binds” with human CLDN6 [4].

B3: humanized anti-CLDN6 antibody H1L1 (antibody, human IgG1, kappa, L234A L235A, V domains shown)
VH: QVQLVQSGAEVKKPGASVKVSCKASGYTFTEYTMHWVRQAPGQGLEWMGGVNPNSGDTSYAQKFQGRVTITADTSTSTAYMELSSLRSEDTAVYYCARPGGYDVGYYAMDYWGQGTLVTVSS
VL: DIQMTQSPSSLSASVGDRVTITCRASQDINNYLNWYQQKPGKAPKLLIYFTSRLHSGVPSRFSGSGSGTDYTLTISSLQPEDFATYYCQQGYPLPWTFGQGTKVEIKR
notes: Human IgG1 LALA heavy chain and human kappa light chain; also called H1L1 antibody; hH1 + hL1
For the molecule B3, the binding result with human CLDN4 is on record as “no binding (tested: 100 nM)”; in the assay with human CLDN3, “no binding (tested: 100 nM)”; with human CLDN9 [3], “binds”; in the assay with human CLDN6 [4] it was “binds”.

B4: humanized anti-CLDN6 antibody H2L4 (antibody, human IgG1, kappa, L234A L235A, V domains shown)
VH: EVQLVQSGAEVKKPGASVKVSCKTSGYTFTEYTMHWVRQAPGKSLEWMGGVNPNSGDTSYAQKFQGRVTITADTSTSTAYMELSSLRSEDTAVYYCARPGGYDVGYYAMDYWGQGTLVTVSS
VL: DIQMTQSPSSLSASVGDRVTITCRASQDINNYLNWYQQKPGGAVKLLIYFTSRLHSGVPSRFSGSGSGTDYTLTISSLQPEDFATYYCQQGNTLPWTFGGGTKVEIKR
notes: Human IgG1 LALA heavy chain and human kappa light chain; also called H2L4 antibody; hH2 + hL4
Take B4: the binding result with human CLDN4 was “no binding (tested: 100 nM)”; in the assay with human CLDN3 it was “no binding (tested: 100 nM)”; with human CLDN9 [3] it was “binds”; with human CLDN6 [4] it was “binds”.

B5: humanized anti-CLDN6 antibody H2L2 (antibody, human IgG1, kappa, L234A L235A, V domains shown)
VH: EVQLVQSGAEVKKPGASVKVSCKTSGYTFTEYTMHWVRQAPGKSLEWMGGVNPNSGDTSYAQKFQGRVTITADTSTSTAYMELSSLRSEDTAVYYCARPGGYDVGYYAMDYWGQGTLVTVSS
VL: DIQMTQSPSSLSASVGDRVTITCRASQDINNYLNWYQQKPGKAVKLLIYFTSRLHSGVPSRFSGSGSGTHYTLTISSLQPEDFATYYCQQGYPLPWTFGQGTKVEIKR
notes: Human IgG1 LALA heavy chain and human kappa light chain; also called H2L2 antibody; hH2 + hL2
Consider B5, for which the binding result is “no binding (tested: 100 nM)” with human CLDN4, “no binding (tested: 100 nM)” with human CLDN3, “binds” with human CLDN9 [3] and “binds” with human CLDN6 [4].

B6: humanized anti-CLDN6 antibody H3L3 (antibody, human IgG1, kappa, L234A L235A, V domains shown)
VH: EVQLVQSGAEVKKPGASVKVSCKTSGYTFTEYTMHWVRQAPGQGLEWMGGVNPNSGDTSYAQKFQGRVTLTVDKSTSTAYMELSSLRSEDTAVYYCARPGGYDVGYYAMDYWGQGTLVTVSS
VL: DIQMTQSPSSLSASVGDRVTITCRASQDINNYLNWYQQKPGGAVKLLIYFTSRLHSGVPSRFSGSGSGTDYTLTISSLQPEDFATYYCQQGYPLPWTFGGGTKVEIKR
notes: Human IgG1 LALA heavy chain and human kappa light chain; also called H3L3 antibody; hH3 + hL3
B6: the binding result was “no binding (tested: 100 nM)” with human CLDN4, “no binding (tested: 100 nM)” with human CLDN3, “binds” with human CLDN9 [3] and “binds” with human CLDN6 [4].
